In assay [1] the target is Methanothermobacter thermautotrophicus 70S ribosome (M. thermautotrophicus (endogenous in M. thermautotrophicus cells)) (UniProt O26110). Put plainly: MST; fluorescently labelled (DY-495) 70S, 50S or 30S kept constant, unlabelled aaRS or control protein titrated (mSerRS 2.5 nM-40.8 µM, ArgRS 5.6 nM-91.9 µM on 70S); 20 mM Tris-HCl pH 7.5, 150 mM NaCl, 6 mM MgCl2, 1 mM DTT, 0.05% Tween-20, 0.4 mg/ml BSA; hyperbolic fit.

Assay [2] has as its target Methanothermobacter thermautotrophicus large ribosomal subunit (M. thermautotrophicus (endogenous in M. thermautotrophicus cells)) (UniProt O26110). The description is as above.

Methanothermobacter thermautotrophicus 70S ribosome (M. thermautotrophicus (endogenous in M. thermautotrophicus cells)), sequence (O26110 whole entry, looked up): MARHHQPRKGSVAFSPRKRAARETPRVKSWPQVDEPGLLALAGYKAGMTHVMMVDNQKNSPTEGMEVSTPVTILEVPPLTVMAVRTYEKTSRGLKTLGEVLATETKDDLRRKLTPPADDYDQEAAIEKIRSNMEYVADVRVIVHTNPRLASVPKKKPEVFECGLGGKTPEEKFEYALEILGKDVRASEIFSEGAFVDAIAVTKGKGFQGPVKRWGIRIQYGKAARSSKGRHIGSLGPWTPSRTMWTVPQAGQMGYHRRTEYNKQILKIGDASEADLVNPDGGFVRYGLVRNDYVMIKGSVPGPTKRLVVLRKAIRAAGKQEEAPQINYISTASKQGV
Methanothermobacter thermautotrophicus large ribosomal subunit (M. thermautotrophicus (endogenous in M. thermautotrophicus cells)), sequence (O26110 whole entry, looked up, tested part not stated): as the sequence (O26110 whole entry, looked up) above

B1: Methanothermobacter thermautotrophicus methanogenic-type seryl-tRNA synthetase (enzyme)
chain: MKFKLKGIIKLSKEVPGIEDDLEKFFTEAESDILRRGVPEGQEHEAAHIKSWRLEGDTLHIEMESGRRVRAHDGLLRLKKPLGQLLGPKYRVGVRGISVTDYTMEMKAPGVSGIPSLAELPFVEDAAITDGTIMVRFQPLEESDLRKHVFDRVVKHARTLVESSDDLTVQVTRATPGEIIARSRSRDFFFEGDPTEEAMRLGWVKKFPGRGQWFYGPKITALHRALEEFFIERIVKPLGFVECLFPKLIPLDIMNKMRYLEGLPEGMYYCSAPSRDPETFEEFKNELIINREVPMDLLKRGIKDPGYVIAPAQCEPFYQFLSHEVVSAEDLPVKFFDRSGWTYRWEAGGSKGLDRVHEFQRVELVWLAEPGETEEIRDRTVELSHDAADELELEWYTEVGDDPFYLEGRKVEERGIEFPDVPKYEMRLSLPGREKGVAVVSANVHGTHFIEGFSIREARNLNIWTGCTGIGLSRWIYGFLAQKGFETGNWPDFIGERVEGVENPRIITWPRQD
For orientation: Kd means the equilibrium constant for the complex coming apart. Take B1: the Kd in assay [1] worked out at 1250 nM; in assay [2], 1290 nM.

B2: Methanothermobacter thermautotrophicus arginyl-tRNA synthetase (enzyme)
chain: MFRYIEKEARDSITAALEKLGIKVPPEIKLEEPPNPQLGDLASTVSFELAGKLRRAPIEITADIMSVIETPEIFETIESKGPYINFFVDYGRFSSRLLESIQDDYGSHPPRDERVILEHTSANPNGPLHIGHIRNAIIGDSLARILRMAGYDVETQYYVNDMGRQIAMIVWGLLNLDGDLEDYPGDKMDHRVGKLYFEVNQRLKENPGIRDEVDELIRKYEAGENEELFRKVVEYCLSGMEETMKRLHVHHDRFVWEGQFVRDGTVDRVIESLRKTGYTGENDVLYLDLEEFGLEKELVLTRSDGTSLYSTRDIAYHLQKSEEGDVIIDVLGSDHKLAAEQVGIAVELLGGKRPEVIFYEFITLPEGSMSTRRGVFISVDELMDEAHSRALHEVKKRRDLPDDVADDIAESIGNGAIRYYIARLSPEKHIVFRWDDALSFERGCASIQYAHARACKLLEKASFTGEEDIEDGWKPEGDERELVRLLARFPVVVEESALARRVHPVAQYAQDLANTFNSFYRSTPVIGSDFEGARLRLVDSVRKTLRNALNLLGIHAPETM
Take B2: in assay [1], the Kd was determined as 4700 nM.

For the origin of these results see article PMC4005694.
